According to the nanobody polyreactivity screen of Harvey et al. (2022):

Experiment: yeast display, Sf9 membrane polyspecificity reagent, FACS + sequencing; frameworks hold sequencing errors
Outline: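 Nanobodies from a synthetic yeast display library (Saccharomyces cerevisiae BJ5465), induced 36–48 hours with galactose, were stained 1 hour at 4 °C with 10% biotinylated, detergent-solubilized Sf9 membrane reagent, enriched on streptavidin microbeads, then FACS-sorted. Anti-HA (expression) and streptavidin (reagent binding) fluorescence set low and high (top ~1%) gates. Polyreactivity labels come from the gate of origin. Genes were colony-PCR amplified, MiSeq 2 × 250 sequenced and filtered by CDR length.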

Sequence | polyreactivity (PSR sort gate)
KVQLVESGGGLVQAGGSLLLSCAASGRTFTYNAIGWYRQARGTERELVAVITNSGGSTYYADSVKGRYTISRDNAKNTVYLQRNRLKPEDTAVYYCAADYFSRYWYRFYYWGQGTQVTVSS | high polyreactivity
QVQLVESGGGLVQAGGSLRLSCAASGIIFLKYAMGWYRQAPGKERELVAGISVRGGRTYYADSVKGRFTISRDNAKNTVYLQMNSLKPEDTAVYYCAKERSRYYPYDYWGQGTQVTVSS | high polyreactivity
QVQLVESGGGLVQAGGSLRLSCAASGSTFRNYAMGWYRQAPGKERELVAAITKRGGTTYYADSVKGRFTISRDNAKNTCYLQMNSLKPEDTAVYYCATGYNSSPFDYWGQGTQVTVSS | high polyreactivity
QVQLVESGGGLVQAGGSLRLSCAASGSIFGTYAMGWYRQAPGKERELVAAITGRDGITYADSVKGRFTISCDNAKNTVYLQMNSLKPEDTAVYYCAAVSHGVYYQYRRRYYSWGQGTQVTVSS | high polyreactivity
QVQLVESGGGLVQAGGSLRLSCAASGRIFSAYAMGGYRQAPGKGRELVAAISYSGGSTYYADSVKGRFTISRDNAKNTVYLQMNSLKPEDTAVYYCAASGPRWWRFGYWGQGTQVTVSS | low polyreactivity
QVQLVESGGGLVQAGGSLRLSCAASGFTFQNYAMGWYRQAPGKERELVAAIDSRGGRTYYADSVKGRFTISRDNAKNTVYLQMNSLNPEDTAVYYCAGAENKRFGSVGYYYWGQGTQVTVSS | low polyreactivity
QVQLVESGGGLVQAGGSLRLSCAASGNILLFNAMGWYRQAPGKERELVATINQSGGRTYYADSVKGRFTISRDNAKNTVYLQMNSLKPEDTAVYYCNAPGSPVVQQPGYYWGQGTQVTVSS | low polyreactivity
QVQLVESGGGLVQAGGILRLSCASSGRTFRYYAKGWYRQAPGKERELVATISKSGGSTYYADSVKGRFTISRDNAKNTVYLQMNRLKPEDTAVYYCAAVGPYRWYDYWGQGTQVTVSS | high polyreactivity
QVQLVESGGGLVQAGGSLRLSCAASGSTFYLYAMGWYRQAPGKERELVAAISWSGGDKYYADSVKGRFTISRDNAKNTVYLQMNSLKPEDTAVYYCAAEITDSYPGSPRRRDYWGQGTQVTVSS | low polyreactivity
QVQLVESGGGLVQAGGSLRLSCAASGRTFYTNTMGWYRQAPGKERELVAAISYSGSSTYYADSVKGRFTISRDNAKNTVYLQMNCLKPEDTAVYYCNAVRYYRYYYWGQGTQVTVSS | low polyreactivity
QVQLVESGGGLVQAGGSLRLSCAASGSIFGRYAMGWYRQAPGKEREFVSAISSSGGRTYYADSVKGRFPISRDNAKNTVYLQMNSLKPEDTAVYYCATEGYYSRTRLYLEYDYWGQGTQVTVSS | high polyreactivity
QVQLVESGGGLVQAGGSLRLRCAASGIIFSYYAMGLSRQAPGKERELFAAISSSGSTNYADSVKGRFTISRDNAKNTVYLQMNSLKPEDTAVYYCNAGYGRRVYVYSFKLRYNYWGQGTQVTVSS | high polyreactivity
QVQLVESGGGLVQAGGSLRLSCAASGRTFYYNAMGGYRPAPGKERELVATITWTGDSTYADSVKGRFTISRDNAKNTVYLQMISLKPEDTAVYYCAAGKPVILTGDYDYWGQGTQVTVSS | low polyreactivity
LGQLQESGGGLVQAGGSLRLSCAASGDIFDADIMGWYREAPGKEREHVASITDGGSTNYADSVKGRFTISRDNAKNTVYLPMNSLKPENTAVLYCAAIAYPDLPTYFDYDSDYFDWGQGTQVTVSS | low polyreactivity
QVQLVESGGGLVQAGGSLRLSCAASGSIFTYYAMGWYRQAPGKERELVAAITWGGSTYADSVKGRFTISRDNAKNTVYLQMNSLKPEDTAVYYCAAQFRSYRYPAYHYDYWGQGTQVTVSS | low polyreactivity
QVQLVESGGGLVQAGGSLRLSCAASGRISRNYAMGWYRQAPGKERELVAAINRGGSTYYADSVKGRFTISRDNAKNTVYLQMNSLKPEDTAVYYCAARYPNQYDYWGQGTQVTVSS | high polyreactivity
QVQLVESRGGLVQAGGSLRLSCAASGRIFSKYAMGWYRQAPGKERELVAGITIAGRTKYADSVKGRFTISRDNAKNTVYLQMNSQKPEDTAVYYCAARAQATGGYGYWGQGTQVTVSS | high polyreactivity
QVQLVESGGGLVQAGGSLRLSSAASGRTFYVNAMGWYRQAPGKERELVAAITRSSGSTHYADSVKGRFTISRDNAKNTVYLQMNSLKPEDTAVYYCAADSTYRKYYYWGQGTQVTVSS | high polyreactivity
QVQLVESGGGLVQAGGSLRLSCAASGSTFPPYAMGWYRKATGNERELVADISSGVSTNYADSVNGRFTISRDNAKNTVYLQMHSLKPEDTAVYYCAADVYHYEWWYFSEFDYWGLGTQVTVSS | low polyreactivity
QVQLVESGGGLVLAGGSLRLRCAASGSNFYVNAMGWYRQAPWKEMELVAAISRRGGSTYYADSVKGRFTISRDNAKNTVYLQMNSLKPEDTAVYYCNKAMRGQAPSGPEYDYWGQGTQVTVSS | high polyreactivity
KVQLVESGGGLVQAGGSLRLSCAHSGYIFGYYAMGCYRQAPGKERELVAAISSGGNTNYADSVKGRYTISRDNAKTTVYLQMNSLKPEDTAVNYCATRDRYKRIRYDYWGQGTQVTVSS | high polyreactivity
QVQLVESGGGLVQAGGSLRLSCAASGRTFGYNVMGWYRQAPGKERELVARITSGGNTKYADSVKGRFTISRDNAKNTVYLQMNSLKPEDTAVYYCAKRPLGVRGIYFQYDYWGQGTQVTVSS | high polyreactivity

Sequence | polyreactivity (PSR sort gate)
QVQLVDSGGGLVQAGGSLRLSCAASGRTIHYYAMGWYRQAPGKEREVVAVISSGGSTYYADSVKGRFTISRDNAKNTVYLQMNSLKPEDTAVYYCAALSSRTYKTGYYTYDYWGQGTQVTVSS | low polyreactivity
QVQLVESGGGLVQAGGSLRLSCAASGSIFVTNAMGWYRQAPGKEREWVAAISVSGGSTYYADSVKGRFTISRDNAKNTVYLQMNSLKPEDTAVYYCAAPGRLFSLYDYWGQGTQVTVSS | low polyreactivity
QVQLVESGGGLVQAGGSHRLSCAAYGYTIPFYTMGWYRQAPGKERDLVAAINSGGSTYYADSVKGRFTISRDNAKNTVYLQMNTLKPEDTAVYYCAVEGGFRVRYQAQYRYYYWGQGTQVIVSS | high polyreactivity
QVQLVESGGGLVQAGGSLRLSCAASGSTFQVYGMGWYRQAPGKERELGAAISRSGGRTYYADSVKGRFTISRDNAKNTVYLQMNSLKPEDTAVYYCNAPISYYDEYYYWGQGTQVTVSS | high polyreactivity
QVQLVESGGGLVQAGGRLRLSCAASGFTFPRYAMGWYRQAPGKERELVAAISRGGSTNYADSVKGRFTISRDNAKNTVYLQMNSLKPEDTAVYDCAKVLRRWPDPAWGMDYWGQGTQVTVSS | high polyreactivity
IIQAGGSLRLSCAASGRTFSGYARGWYRQAPGKERELIADITSGGSTYYADSVKGRFTISRDNAKNTVYLQMNSLKPEDTAVYYCSRDDRLAGDYWGQGTQVTVSS | low polyreactivity
QVQLVESGGGLVQAGGSLRLSCAASGSIFEGNGMGWYRQAPGKERELVASITRSGGSTYYADSVKGRFTISRDNAKNTVYLQMNSLKPEDTAVYYCAVSRDSYGGKGSVLYDYWGQGTQVTVSS | low polyreactivity
QGQLVESGGGLVHAGVSLRLSCAASGSTFQPYAMGWNRQAPGKERELVAAINWSGGGTYYADSVKGRFTISRDNAKNTVYLQMNSLKPVDTAVYYCAAEVYTYWALNTWRYDYWGQGTQVTVSS | high polyreactivity
QVHLVESGGGLVQAGGSRRLSCAASGRTVARPAMGWYRQAPGKERELVATITIGGRTYYADSVKGRFTISRDNAKNTVYLQMNSLKPEDTAVYYCAKRISGYRGDYWGQGTQVTVSS | high polyreactivity
QVQIVESGGFLVQAGGSLRLSCDASGRNIPGYGMGWSRHAPGKERELVAVITSNGGITYYADSVKGRFTISRDYAKNTVYLQMNSLKPEDTAVYYCDAYVIYYEFDSWGQGTQVTVSS | low polyreactivity
QVQLVESGGGLVQAGGSLSLSCAASGSIFGSYAMGWYRKAPGKERELVAAITGSGVSTYYADSVKGRFTISRDNAKYTVYLQMNSLKPEDTAVYYCAAKRYYARSAYGSYFIVGYWGQGTQVTVSS | high polyreactivity
QVQLVESGGGLVQAGGSLRLSCAASGSIFWYNTMGWYRQAPGKERELVAAITFSGGSTYYADSVKERFTISRDNAKNTVYLQMNSLKPEDTAVYYCAAVFYSAVGYYYWGQGTQVTVSS | low polyreactivity
QVQLVESGGGLVQAGGSLRLSCAASGRIFPVYAMGWYRQAPGKERELVAAISRRGGSTYYADSVKGRFTISRDNAKNTVYLQMNSLKPEDTAVYYCAATAYYYWWWYGGDMDYWGQGTQVTLSS | high polyreactivity
QVQLVESGGGLVQAGGSLRFSCAASGRILFSYGAMGLYRQAPGRERELDAATSYSGGSTYYADSVKGRFTISRDKAKKTVYLQMNSLKPEETAVYYCDPSSIVYRHYYWGQGTQVTLSS | high polyreactivity
QVQLVESGGGLFQAGGSLRLSCAASGRTLRRNALGWYRQAPWKERELVAAISTGGGSTYYADSVKGRFTISRDYAKKTVYLQINSLNPEDSAVYYCAAVYSQSTKRYELYYWGQGTQVTVSS | high polyreactivity
QVQLVESGGGLVQAGGSLRLSCAASGITFYGNAMGWYRQAPGKERELVANTYYADSVKGRFTISRDNAKNTVYLQMNSLKPEDTAVYYCNVLFADKSDYWGQGTQVTVSS | low polyreactivity
QVQLVESGGGLVQAGGSLRLSCAASGNTFDEYAMGWYRQAPGKEREFVAAIRNTYYADSVKGRFTISRDNAKNTVYLQMNSLKPEDTAVYYCAKPSQLHPYEYWGQGTQVTVSS | low polyreactivity
QVQLQESGGGLVQAGGSLRPSCAASGSISDGVPMGWYRQAPGEQRELVATTVLGATTNYADSVKGRFTISRGNAKNTVYLLMNSLKPEETAVYYCAARLRYDKGFSYWGQGTQVTVSS | low polyreactivity
QVQLVESGGGLVQAGGSLRLSCAASGSIFKVNTMGWYRQAPGKERELVAAISSSDDSTYYADSVKGRFTISRDNAKNTVYLQMNSLKPEDTAVYYCAADGSSVDSGGINDEYWGQGTQVTVSS | low polyreactivity
QVQLVDSGGGLVQAGGSLRLSCAASGRTFAWNAMGWYRQAPGKERELVAVITSGGSTNYADSVKGRFTISRDNAKNTVYLQMNSLKPEDTAVYYCATGDGPSLFDYWGQGTQVTVSS | low polyreactivity
QVQLVESGGGLVQAGGSLRLSCSASGRIFVDNALGWYRQAPGKERELVATITSTGSTNYADSEKGRFTISRDNGMNTFYLQMNSLKPEDTAFYYCNADGIMQDYDYWGQVTQVTVSS | low polyreactivity
